Legend:
MMP-9 = assay: cell-based or functional assay
MMP-2 = assay: cell-based or functional assay

shark cartilage extract obtained in Section (1) of Example 1 (water extract of blue shark cartilage, ethanol precipitate)
decomposition-inhibition rate (type V collagen degradation, SDS-PAGE/western blot densitometry) (MMP-9): 90% | decomposition-inhibition rate (type V collagen degradation, SDS-PAGE/western blot densitometry) (MMP-2): 90%
